The assay concerns the target recombinant flagellin of Bacillus cereus HN001 (WR52_08290) (Bacillus cereus HN001). Kind of assay: BLI.

The record followed here is paper PMC7567440 (2020).

B1: pigeon ovomucoid (natural protein)
chain: VEVDCSRYHNTTNVEGREGLPCTKDFNPICGSDGVTYDNECLLCSYNREYGTNVSKDHDGQCREVIPVDCSKYPNVTNEEGRVALFCTENLRLVCGADGVTYDNECLLCARSLERGTRAGKKYDGECRREITTVDCSDHPQHACTLNYLPVCGSDSRTYSNRCNFCNAVVHSNGTLTLNYFGEC
modifications: terminal Galα1-4Gal residues; biotin (biotinylated POVO in the BLI assay)
B1: the koff (commonly the rate constant with which the complex falls apart) was determined as 0.000376 s⁻¹.
